Patent US20230212275

What was measured:
[1] = target: C3b (Complement Technology, Inc, A113) (UniProt P01024)
[2] = target: C3b (Complement Technology, Inc, A113), P01024
C3b (Complement Technology, Inc, A113), P01024, sequence (P01024 whole entry, looked up): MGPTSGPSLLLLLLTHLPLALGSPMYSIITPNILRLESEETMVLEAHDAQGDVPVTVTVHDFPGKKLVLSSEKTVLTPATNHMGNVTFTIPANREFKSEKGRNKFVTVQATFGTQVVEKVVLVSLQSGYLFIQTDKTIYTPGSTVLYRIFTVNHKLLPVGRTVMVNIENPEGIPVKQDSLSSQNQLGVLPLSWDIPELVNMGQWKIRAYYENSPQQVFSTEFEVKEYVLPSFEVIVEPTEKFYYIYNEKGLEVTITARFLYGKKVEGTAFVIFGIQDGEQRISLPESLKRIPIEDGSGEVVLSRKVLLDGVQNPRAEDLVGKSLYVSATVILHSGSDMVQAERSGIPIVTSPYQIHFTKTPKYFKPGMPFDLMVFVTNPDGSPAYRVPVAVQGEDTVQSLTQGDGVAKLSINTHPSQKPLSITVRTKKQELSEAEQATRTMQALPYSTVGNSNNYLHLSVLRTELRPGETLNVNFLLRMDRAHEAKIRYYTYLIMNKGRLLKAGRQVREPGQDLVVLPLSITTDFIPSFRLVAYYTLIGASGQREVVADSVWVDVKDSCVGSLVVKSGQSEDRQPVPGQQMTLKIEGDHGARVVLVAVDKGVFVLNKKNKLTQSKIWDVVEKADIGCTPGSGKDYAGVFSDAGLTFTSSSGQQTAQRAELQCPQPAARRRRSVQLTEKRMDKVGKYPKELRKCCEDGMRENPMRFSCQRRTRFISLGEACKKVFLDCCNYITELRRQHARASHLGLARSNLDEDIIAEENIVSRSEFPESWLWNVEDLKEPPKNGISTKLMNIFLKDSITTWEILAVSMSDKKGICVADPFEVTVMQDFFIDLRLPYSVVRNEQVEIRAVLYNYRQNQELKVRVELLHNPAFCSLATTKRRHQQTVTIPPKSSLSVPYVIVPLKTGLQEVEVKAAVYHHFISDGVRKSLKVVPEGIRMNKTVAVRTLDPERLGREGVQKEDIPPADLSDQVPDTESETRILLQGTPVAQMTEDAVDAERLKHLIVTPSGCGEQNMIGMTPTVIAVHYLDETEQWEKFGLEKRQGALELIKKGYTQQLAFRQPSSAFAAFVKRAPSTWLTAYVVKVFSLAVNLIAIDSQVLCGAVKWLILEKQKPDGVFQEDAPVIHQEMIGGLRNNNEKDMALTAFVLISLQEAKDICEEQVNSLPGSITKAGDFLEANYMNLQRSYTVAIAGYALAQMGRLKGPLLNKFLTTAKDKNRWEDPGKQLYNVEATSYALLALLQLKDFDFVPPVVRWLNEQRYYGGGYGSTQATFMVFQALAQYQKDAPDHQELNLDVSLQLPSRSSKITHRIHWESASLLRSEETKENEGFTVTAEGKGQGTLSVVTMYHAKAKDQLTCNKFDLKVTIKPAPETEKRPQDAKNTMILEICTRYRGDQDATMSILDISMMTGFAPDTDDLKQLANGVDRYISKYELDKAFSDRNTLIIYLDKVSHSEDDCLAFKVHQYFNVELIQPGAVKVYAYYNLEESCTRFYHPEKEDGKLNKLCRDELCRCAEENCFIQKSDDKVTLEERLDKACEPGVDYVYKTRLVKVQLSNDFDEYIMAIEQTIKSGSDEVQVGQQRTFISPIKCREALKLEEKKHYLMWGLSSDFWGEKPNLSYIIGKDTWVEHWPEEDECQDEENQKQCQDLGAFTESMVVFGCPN

For “CFI secreted by HEK293 cells transduced with AAV2 bicistronic vector RC289 (coAflibercept-F2A-coCFI)”, the “C3b cleavage assay, iC3b ELISA” value [1] was “CFI and FHL1 expressed from all bicistronic vectors is functional and can facilitate breakdown of C3b to iC3b”.

In the case of “CFI secreted by HEK293 cells transduced with AAV2 bicistronic vector RC313 (coCFI-F2A-coAflibercept)”, the “C3b cleavage assay, iC3b ELISA” value [1] is reported as “CFI and FHL1 expressed from all bicistronic vectors is functional and can facilitate breakdown of C3b to iC3b”.

B1: recombinant CFI (Complement Technology, Inc, A138) (protein)
chain: KVTYTSQEDLVEKKCLAKKYTHLSCDKVFCQPWQRCIEGTCVCKLPYQCPKNGTAVCATNRRSFPTYCQQKSLECLHPGTKFLNNGTCTAEGKFSVSLKHGNTDSEGIVEVKLVDQDKTMFICKSSWSMREANVACLDLGFQQGADTQRRFKLSDLSINSTECLHVHCRGLETSLAECTFTKRRTMGYQDFADVVCYTQKADSPMDDFFQCVNGKYISQMKACDGINDCGDQSDELCCKACQGKGFHCKSGVCIPSQYQCNGEVDCITGEDEVGCAGFASVTQEETEILTADMDAERRRIKSLLPKLSCGVKNRMHIRRKRIVGGKRAQLGDLPWQVAIKDASGITCGGIYIGGCWILTAAHCLRASKTHRYQIWTTVVDWIHPDLKRIVIEYVDRIIFHENYNAGTYQNDIALIEMKKDGNKKDCELPRSIPACVPWSPYLFQPNDTCIVSGWGREKDNERVFSLQWGEVKLISNCSKFYGNRFYEKEMECAGTYDGSIDACKGDSGGPLVCMDANNVTYVWGVVSWGENCGKPEFPGVYTKVANYFDWISYHVGRPFISQYNV
With B1 the “C3b cleavage assay, iC3b ELISA” value [2] was “C3b incubated with recombinant CFI and FHL1 served as a positive control; C3b breakdown requires the presence of CFI and FHL1”.
